Test results: a protein production outcome set (Wang et al. 2014)

Assay: label from the status in PepcDB records

Sequence	protein production
MQRVEEVFARREPELAPMAEPAPQPQVRQEPLPEVDQAYIHNYVETSGQQDIRADFRDDAGAVAEVFDVHSRQPRAAEPVVYQQAAPQVAPQLAWEEPQAIEPSQPEWHAMPELPADVSSNISSDAHAYAPEPQAFDLADEVEIAVAEAAPAPVSVRPPAHGGRSSLEFSSLRLPLANFGARRDVSAVDPRRVEPRSELYPAASRIEPQVEPAPAVVQAEETAPSFAQPVAEVFTPAAEPLAPAIAERPAAKNLSPMDELIYGVAQYSIPERGEAQPVKTEPVAQAAKVEPPAVAAAPAKAAPVAAAVPASPIEEPDFTDFTGFNDDDFELALDDLDLDLDLSEIAEAEVAPAPQPVRPQPATPIAAVAPQPVRHEPAPQPRPAPVVAAAPIAAAPVVAAPVQPRPVAAQPAVPQTLESLPFDPSQIGETEEHPETIIEMDVPELPVGVFEPKPAARRHEEDLDIDTELATLFAPAVAGGLDRHKHAENRGAAQARPAPAPEEADEFERALEEDFRRSMQEAAASRGNAPRDAETYVDHQAAYRDEDERGGRRWIMPVAAAIGLVLIGGGVYALISGGSSGTGSNGAPVIISADNDPMKVVPENPGGRVVPNQDKAVYDRVAGGAAADPKQPALISSNEKPVDVVQRTLIPEQLPLEGENDADMEAAGTPVGETEDPRLLSPEEKAAHNEGAGATGVSPRKVRTMIVKPDGTLVAQEVDAPAAQPPKADKVAELAAPQTAKPGEGAPAVIAASRVPVAPEQAQPQASTPAAAKPSTQSAAPLPAARPSSQPANVVATVTNQGNVRPATTAPAQAAQQQTAAATPAATSTPSAGGYYIQIASLPSQAEAQKSYQNMSAKFGSVIGGRGVDIKAAEIAGKGTFYRVRIPAGDKNEAVALCEKFRSAGGSCLVAR	failed
MQRVLGFSTCSYSWIAQSFNRFHPRCIQPTCFRSKVTKLCPKRPRSSLLSDNNATKYPQKAIYLTAQVKLPQISEVQNATFDQCLPLARNICFRLQEEPQDENAYQVLKELLSREEGARAFFVEYLSDYELSLPDKKPPFKLEKLLKDCDEYVPNLLARNLAMSVAKEVDLANDSKNAENEEVDDTGSGSWSDSVEESSGGPTMVKERTALLIDSIASSEIARELVALWFSIRSRKGKYVHFLERQKFRKDQLDVIQRTLEVFIGA	failed
MQSKRGRPRNIETQKAILSASYELLLESGFKAVTVDKIAERAKVSKATIYKWWPNKAAVVMDGFLSAAAARLPVPDTGSALNDILIHATSLANFLISREGTIINELVGEGQFDSKLAEEYRVRYFQPRRLQAKQLLEKGIKRGELKENLDIELSIDLIYGPIFYRLLVTGEKLDDSYVHDLVINAFEGIRLR	not failed
MQSPPHDPASALAIRNHYRQSQSRAARLRLLVDTGQELIQLPPEAMRKCVLQRACAFVAMDHGLLLEWGADNGVQTTARHGSKERLSTLETTADPLAIGPQWLERPGTHLPCVLLLPLRGADEGSFGTLVLANSVAISAPDGEDIESLQLLATLLAAHLENNRLLEALVARDRT	not failed
MQSTIRKQLLQVFSEADGEFVSGQTISDKLGCSRTAVWKHMEDLRNEGYELEAVRRLGYRIASKPDKVTANEIQLGLQTKHIGRTVYFEESVESTQHIAAKLAYEGAEEGTIVVAEEQTAGRGRLSRKWHSPKGTGIWMSIILRPSIPVHHAPQLTLLAAVSVAQAIEKCTGVNVGIKWPNDILIQGKKAVGILTEMQADPDKINAVIMGIGINANQKQEHFDEEIQHIATSLAIESGKPIVRAELMQQIFLQLEKLYEEYLQNGFSVIKILWESYAVSIGKEINARTMRETITGVAKGITEDGVLLLEDHEGKVHHIHSADIEIK	failed
MQTIIYQIAPNDWVTDEVLMASTGLKPGTILRARKKAWFVGREYKHMTLDGKPKANGECLYHLPTINRWIRNMPDPDVDLLEHHHHHH	not failed
MQTINATEIRNNFSYYIDTVVRDKPIAVKRNRDVLLFFSEQIIKDLLQDLKIHAELSKEDGIIIGTIDGFDLVVSGESEQEVIQKLAEDLLEYAQDYMNDFKLFYNAPNRKTHYPYILKVLLSSNIDEVKGYIYAEMV	not failed
MQTLIIVAHPELARSNTQPFFKAAIENFSNVTWHPLVADFNVEQEQSLLLQNDRIILEFPLYWYSAPALLKQWMDTVMTTKFATGHQYALEGKELGIVVSTGDNGNAFQAGAAEKFTISELMRPFEAFANKTKMMYLPILAVHQFLYLEPDAQQRLLVAYQQYATNVGAGHFKDLEHHHHHH	not failed
MQTVGSFSEFLDDMVGRYGPRPAIQYRPRYRTLRWSYLELGTHAAKLASLLDEHGVGSGDRVFLSAENSPHWVAAFFAIAARGAVIVPLNPRSPPEQLANLVRSAGPSLVLASPRRRWEGPPLPVVDIERSGRVPSNRPATRTGPARLAEIIYTSGTTGDPKGVMLTHANLLSDLSAVARAIPLAPDDHVLSLVPLFHVYGQMTSLFCPLAAGCPVSYLTTPTTRSVLEALTHTPVTHLVAVPEVLKTMMDRLESRIGRIPGFLWPLLRGRIRARISGSLRTIVCGGAPLDPVVEEKWWALGFQVLQGYGLTETSPVIAANTPQAHRIGSVGKPLDEVELRIASDGEILVKGPMVMAGYFRDPARTEAAFADGWLKTGDAGRLDADGFLYVYGRKRYMILGPGGENVFPEDIEAVLNRTAGVTDCAVVGLESGGRTLVHAVLLADADEARAAAIVAEANRHLAPHQRIVSWSLWPEPDFPRSVTRKVKKDEVLGRLRREPSTQAVPVGRSTPLRLLLAQVAGTEAGALSDDTRLVPDLGLDSLLRIELVARIEEDLGVCLDEIDIGPLTTVADLENLLVRRQDRMPRVDAHPRWSLSPWASRLRPLAQKVFLQWWIAPFCRLRVSGLEHLAALDGPVIFMANHRSYLDSAVASFALPDRFRYRLAIAAATGVLYTRYRWAVPIGELSLNAFPLPSGPDENIRPGLELIGRLLDDGWNVLIFPEGQMNRGGLGIQPLRRGAGTIGVDMGVPVVPLVIEGTEKVMPPGRIVPRAAAPVSVRFGAPLRAGEAEPHGRMLARIEDALRRLLENSPLEHHHHHH	failed
MQVELIIKNLKVYNSYFKKFIKSDVLINEGKFLHIGKGYEDRLWSENIIDGEDKYIIPGLIDIHMHIESSMTIPREFSKAAIKHGVTTVVADPHEIANVFGVRGIEEFIKFKGNLDIFYGIPSSVPSTSSSLETTGEKITHNEVKRLLEYDNIICLGEVMNFKDLIEDDDSNINKIINISKEKNIPLEGHCPKIQGVDLSLYIYRGVNGDHTQQSVGSLQEKIQNGMFIEMQHKSMTLENIKFLIENNLYEHFALVTDDVMADKLVKGHLDEILKEAVKLGMSIENAIYASTYTPARRMNLLDRGTIAPGKLADFILLDSIEDFNIYEVYKNGEMVFNRDKGLKEEFFEDKSKLDYRFYNSIELNNITKESLEVKVPNKYKNKVNCRTMKVLKNTTFTEEGEVTLNVYNNILQWEKSSCALIAVFERYGKNNNISFGLVEGEIIKEGAIATTWAHDHHNLMVMGRNISDMTIAANEVINSRGGYVVSKNNEVIAKLELPIGGIISDEPIEIIGEKLGEVRNAMRDLGYNHMNEIMSFSTLSLPVSPALKITDKGLIDVKKGSIVSLFKKGLY	failed
MQVIAFIAPLIDKGMDPLTGVPIRQEVPRLMERTFQENQAETYVLFLINLDRFKLVNDSLGEGYGDQVLQTLVRRLLWQLPNQQWIARVSGDEFIACAAIKGELPKKETLATYISSIIQQPFQVDEVQFTMTASIGAAVYPMDGKSVEMIWNSLERALRHAKARGGNCVSWFCQELKDEWIHPFRLENDLRRAVENQELEHHHHHH	failed
MQVPGHAFNPVAAPYFPDHLAFLDGPMNARAQGLPRRLENIVLVADLAGTAVFAVEGAISAMRAQLDLLGVMVIAFIVALGGGVTRDLLIGATPPKAVADWRYPALALLMGGLAFVARDWVLGWSGPLLILLDAAGLGLFAVAGTQKAQNFGISPFVSMLMGTVTGVGGGVIRDIVLARIPLVLQVDLYASSAFVGAASLVIARRLGVPPLWSAWLAGTVCFALRMLSVRYGWQLPKAL	failed
MQVTLIQGLLIGLFALIAGIDFWLEGLYIFRPMIVCTVTGAILGNLTLGIIAGGLTELAFAGLTPVGGTQPPNPIMAGIMTVVLAYTTGKTPSTAIGLALPFSILMQYIILFYYSAFSVLTKKLDAYAANVETKKFTRLALLPTVLVALTYGVIAFLCVYGAQEPMKALVNSMPVWLSHGFEIAGNILPAVGFGLLLKSMLKAEYVPYLLLGFTAACFIKFGNLMPVAVIGISLAFIEFYHNKKQTDNEKKLKSMIESASGNGDDGDGI	failed
MQYRIRRENEAPEAKNAGETLWERDMMREVLLSAYRDRRRERMWKNIWRAVSTLILVALIAGIFRKDEAALQLAGNTPHTAVVNLYGEIGNGVEDQVKKLKDGMEAAYKNPQAKAIVIRANSPGGSPVVSNTAFEEIRRLKAQHPGIPVYLVAEDMCASGCYYIAAAADKIYADPSSIVGSIGVIGSSFDATGLMEKIGVKRRVKIAGSNKGMGDPFSPETPEQSKIWEEMLTGIHGEFIKAVKTGRGGRLKFRQYPDVFSGRVYTGADALKVGLVDGLGNIYSVARDVVKAPDVVDYTPKDDFGRILGRRFGAELKASVREALQAVR	failed
MQYVMSIIGIIAVLGLCFALSNNKSKINFRAIAIMIGFQILIGWFMFATKIGQQIIIFISKVFNKLIKLGTTGVDFLFNGIHRDFVFFLNVLLIIVFFSALLSIFSYLGVLPFIVRVVGGAISKITGLPRVESFHAVNSVFFGSSEALIVIKNDLQHFNKNRMFIICCSAMSSVSASVTASYVMMLDAKYVLAALPLNLFSSLIVCSLLTPVDTKKEDEVIQKFDRTLFGDSFIGAMINGALDGLKVAGIVAALMIAFIGVMEVVNYVISAASGAMGHAVTLQQIFGYVLSPFAFLMGIPTQDIIPAGGIMGTKIVLNEFVAILDLKDTATTLAPRTVGIVTVFLISFASISQIGAIVGTIRALSEKQGSVVSKFGWKMLFASTLASILSATIAGLFI	failed
MRAAGRDRAERRMPHTWSFDYFYSLPFWAALLAVAAVVRLAGGSPVLRGLALLATSNALLLAIPGFSAADLALVWAVSGVALASARTLSRSAPGSSRARRVVVVGSVVAILAFLALFKYRFLQGLLLGPFAQVLAPRASSGVVNPLVLVGVSYFSFKAIHVVVETYRGTLGRVEALAFLNYMTFFPAFISGPINRFGDFSEQLASASPALGADLRAGGERIVHGLFKKVVLVPLVMPYLLTNQARPLDQATLLDVATGLYAYALYFFFDFAGYTDLAIGGARIIGIRLPENFRQPFFQKNIRDLWTNWHMTLTSWLVDYVYWPTVRALRNLEYLRTRPVLLSVIGMNVTFVSCGIWHGEAPHFVLWGAYHGLGISVLNVYQRQKKRIRAPRIQRWFASRYSRWLGTFATFNFFAAGLALFVLDLGQIRALLRALVG	failed
MRAASVPFSQRTTCKGRDGFDQFQIAFASAAERDHSCDQGRRQPGGRPPIQVAAVSGFMHRQGKTPMPTLTINGRSLSVDAANDTPLLWAIREQLQMTGTKFGCGAGLCGACTVHVNGEAVRSCQTMVGDVAGKKITTIEGLSAKGDHPLQKAWIAEQVPQCGYCQSGQIMQAASLLAKNANPTKEEVVAHMDGNLCRCMTYSRIQKAIMRAATEMRTASASGNERRPT	failed
MRAEADPEFAAVAERIHANVGRQGFMNLVGAELSELSRGTCTIAVERRPELLQQHGFFHGGVTAFLVDNATTIAAATSRGQPALTAEYKLNLLSPAVGEKLICRARVIKPGRQVSVVAADVFCVSDGVEKHTATALASIAMLSEDVAAKTKSPAA	failed
MRALLLIAALLAPTAALAQQQLPLWPNGAPGFESRKAIPEQAADYWVKSVNNPSITAYLPPKETATGAALIVLPGGGHRILVIHSEGSDVAKVMNPKGVAVFVVKYRLFREEGSPYTIDHARQDAVRAVRYVRAHAAVFGVDPKRIGLMGFSAGGEAVNLAVYQGAANDPKTDAVDAVSARPDFQVLVYPGPLGVPEKVPTDTPPAFIVAANDDECCSAPPVDLLTRFRAAKVPIEFHLFQSGGHAFNMGLRSHKAALKAWPDRLFDWLADNGWLKAG	failed
MRAMRWILPLLLAIGVAAPARAASEWAVKDGSVQVKAHADEQGRAVVRASIEIAAPPSVVFGVILDCGRAARMSPGVKRCRVVSRAADGSEVREHTVKWGFFLPALQSRSRLSLQPDREIRFTCIGGDIRACDGFWRLEPLDGGMRTRVTYDLWATAPYAAPAGLVSSLMRRTVPQSLAALRRECEGG	failed
